Assay results: patent US20220332804A1 (CSL INNOVATION, published 2022)

Columns and labels:
Experiment in all cases: SPR, mAb captured, C2 mutant analyte;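 note: Anti-C2 mAbs captured on goat anti-human IgG Biacore CM5 chips, alanine or serine C2 surface mutants flowed over at 37 °C, double-referenced sensorgrams fitted to a 1:1 binding model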
human C2 G466A = biological target: T1, human C2 G466A (human, UniProt P06681 21-752)
T1 sequence: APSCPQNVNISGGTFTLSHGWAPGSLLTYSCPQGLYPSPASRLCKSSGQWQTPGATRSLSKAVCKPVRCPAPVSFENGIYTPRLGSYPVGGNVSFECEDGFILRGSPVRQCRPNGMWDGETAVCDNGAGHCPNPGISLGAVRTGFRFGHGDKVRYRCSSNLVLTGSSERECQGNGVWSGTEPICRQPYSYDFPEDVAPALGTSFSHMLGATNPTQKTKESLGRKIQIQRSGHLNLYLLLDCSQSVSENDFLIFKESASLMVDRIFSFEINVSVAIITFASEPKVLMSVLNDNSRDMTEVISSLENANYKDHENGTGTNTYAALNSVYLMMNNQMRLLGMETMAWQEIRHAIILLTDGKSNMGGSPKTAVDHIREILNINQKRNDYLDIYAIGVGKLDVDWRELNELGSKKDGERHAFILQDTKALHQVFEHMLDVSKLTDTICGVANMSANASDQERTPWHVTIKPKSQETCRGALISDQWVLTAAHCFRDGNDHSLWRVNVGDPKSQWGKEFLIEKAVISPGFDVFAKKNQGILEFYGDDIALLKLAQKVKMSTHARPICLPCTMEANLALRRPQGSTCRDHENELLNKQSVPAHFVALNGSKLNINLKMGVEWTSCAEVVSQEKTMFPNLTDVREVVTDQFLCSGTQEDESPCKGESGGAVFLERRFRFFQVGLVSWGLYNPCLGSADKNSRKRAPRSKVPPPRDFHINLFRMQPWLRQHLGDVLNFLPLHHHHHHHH
Method: (§1) Surface plasmon resonance (SPR, Biacore) was used for all binding affinity analyses. In brief, goat anti-human IgG was directly immobilised onto the carboxymethyl dextran surface of CM5 sensorchips to approximately 12,000 RU using standard NHS/EDC chemistry at pH 5. The immobilised antibody surface was pre-conditioned with ten injections of polyclonal human IgG (Privigen 60 s) prepared at 1 μg/mL. Ligands (anti-C2 mAbs) were captured at the beginning of each cycle as described below. An adjacent spot or flow cell in which only Polyclonal IgG was capture was used as a reference surface. The goat anti-human IgG Fc antibody surface was regenerate in 100 mM H3PO4, injected for 45 seconds at the end of each cycle. Experiments were performed at 37° C. and the flow rate of each experiment was kept constant at 30 μL/min.
(§2) Sensogram data was double-referenced against a reference anti-IgG surface (i.e. minus anti-C2 mAb) and blank buffer injections obtained within each experiment. The binding data was fit to 1:1 (kinetic or steady-state) model using local Rmax and null refraction index (RI=0) when appropriate. Buffers and solutions were filtered (0.22 μm) prior to use.

human C2 R434A = biological target: T2, human C2 R434A (human, UniProt P06681 21-752)
T2 sequence: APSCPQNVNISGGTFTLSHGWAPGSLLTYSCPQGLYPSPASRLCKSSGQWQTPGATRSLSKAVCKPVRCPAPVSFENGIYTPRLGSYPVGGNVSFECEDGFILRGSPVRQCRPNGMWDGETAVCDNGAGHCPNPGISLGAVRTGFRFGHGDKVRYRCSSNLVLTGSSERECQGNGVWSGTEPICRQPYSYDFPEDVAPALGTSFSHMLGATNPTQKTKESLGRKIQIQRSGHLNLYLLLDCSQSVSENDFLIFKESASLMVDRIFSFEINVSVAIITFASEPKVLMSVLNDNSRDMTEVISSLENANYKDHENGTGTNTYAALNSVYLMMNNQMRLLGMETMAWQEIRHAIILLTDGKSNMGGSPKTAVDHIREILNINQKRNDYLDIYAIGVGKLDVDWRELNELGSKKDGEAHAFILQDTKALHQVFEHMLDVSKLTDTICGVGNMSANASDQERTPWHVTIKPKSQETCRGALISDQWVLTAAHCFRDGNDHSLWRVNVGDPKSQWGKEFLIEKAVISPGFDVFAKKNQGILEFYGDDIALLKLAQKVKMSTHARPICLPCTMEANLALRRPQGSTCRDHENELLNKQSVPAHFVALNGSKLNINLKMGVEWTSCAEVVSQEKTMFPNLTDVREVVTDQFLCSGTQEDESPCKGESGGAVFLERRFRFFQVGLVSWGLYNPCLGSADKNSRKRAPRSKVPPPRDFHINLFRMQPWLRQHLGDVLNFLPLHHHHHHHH
Method: as §1, §2

human C2 A470S = biological target: T3, human C2 A470S (human, UniProt P06681 21-752)
T3 sequence: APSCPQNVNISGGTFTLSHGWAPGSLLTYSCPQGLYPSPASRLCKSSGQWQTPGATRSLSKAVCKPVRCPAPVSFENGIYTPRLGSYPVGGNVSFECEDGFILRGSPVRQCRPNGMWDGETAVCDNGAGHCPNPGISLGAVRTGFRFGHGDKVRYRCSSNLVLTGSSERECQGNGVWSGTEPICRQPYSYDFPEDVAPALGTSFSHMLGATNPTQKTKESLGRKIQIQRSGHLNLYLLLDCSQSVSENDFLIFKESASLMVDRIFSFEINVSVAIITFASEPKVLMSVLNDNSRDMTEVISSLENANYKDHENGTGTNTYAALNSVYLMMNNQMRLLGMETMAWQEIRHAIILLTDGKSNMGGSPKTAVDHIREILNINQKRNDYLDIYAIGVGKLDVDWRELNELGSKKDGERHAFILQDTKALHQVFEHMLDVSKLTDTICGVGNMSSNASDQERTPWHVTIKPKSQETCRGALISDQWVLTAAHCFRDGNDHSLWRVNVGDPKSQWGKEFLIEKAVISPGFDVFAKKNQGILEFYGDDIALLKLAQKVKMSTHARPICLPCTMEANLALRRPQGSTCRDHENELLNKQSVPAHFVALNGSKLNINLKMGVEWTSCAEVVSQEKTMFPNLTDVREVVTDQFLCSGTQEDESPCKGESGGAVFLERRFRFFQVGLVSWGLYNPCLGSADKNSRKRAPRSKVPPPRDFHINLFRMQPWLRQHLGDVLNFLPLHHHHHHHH
Method: as §1, §2

human C2 I272A = biological target: T4, human C2 I272A (human, UniProt P06681 21-752)
T4 sequence: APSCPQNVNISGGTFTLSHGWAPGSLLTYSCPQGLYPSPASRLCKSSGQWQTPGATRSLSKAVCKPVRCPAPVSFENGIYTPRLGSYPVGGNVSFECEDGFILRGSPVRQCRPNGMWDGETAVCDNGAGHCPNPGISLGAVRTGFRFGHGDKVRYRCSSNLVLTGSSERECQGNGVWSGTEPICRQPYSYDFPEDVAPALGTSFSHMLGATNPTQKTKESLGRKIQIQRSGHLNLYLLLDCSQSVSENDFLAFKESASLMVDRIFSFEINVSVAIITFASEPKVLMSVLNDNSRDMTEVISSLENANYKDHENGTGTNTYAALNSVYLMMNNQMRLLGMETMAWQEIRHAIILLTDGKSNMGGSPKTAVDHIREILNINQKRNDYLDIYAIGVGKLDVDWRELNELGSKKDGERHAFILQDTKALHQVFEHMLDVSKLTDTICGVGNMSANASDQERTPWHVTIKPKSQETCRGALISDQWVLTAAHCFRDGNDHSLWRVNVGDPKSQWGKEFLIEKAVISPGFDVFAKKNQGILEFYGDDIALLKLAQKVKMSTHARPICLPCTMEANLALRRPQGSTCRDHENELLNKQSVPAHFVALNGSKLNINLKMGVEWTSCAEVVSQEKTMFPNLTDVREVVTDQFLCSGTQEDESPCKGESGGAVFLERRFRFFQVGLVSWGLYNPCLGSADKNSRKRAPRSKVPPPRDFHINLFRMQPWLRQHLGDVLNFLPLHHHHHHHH
Method: as §1, §2

- Kd (human C2 G466A): 144 nM
- Kd (human C2 R434A): 230 nM
- Kd (human C2 A470S): 32.8 nM
- Kd (human C2 I272A): 477 nM
B1: RF16-214 (antibody, V domains shown)
VH: EVQLLESGGGLVQPGGSLRLSCAASGFTFSWYQMMWVRQAPGKGLEWVSRIYPSGGGTAYADSVKGRFTISRDNSKNTLYLQMNSLRAEDTAVYYCARDAGYGDNWGQGTLVTVSS
VL: QSALTQPPSVSVSPGQTASITCSGDKLGEKYASWYQQKAGQSPVMVIYQDRKRPSGIPERFSGSNSGNTATLTISGTQAMDEADYYCQAWDTRAVVFGGGTKLTVLG
